Changes are numbered by the printed parent chain. In names and notes the source's numbering stands.
B1: ECB94: bispecific SEQ ID NO: 61: P54AR4-83v22, (AP)5, P114AR7P94-A3v22 (protein)
chain: MLPAPKNLVVSEVTEDSARLSWDDPWAFYESFLIQYQESEKVGEAIVLTVPGSERSYDLTGLKPGTEYTVSIYGVHNVYKDTNIRGLPLSAIFTTAPAPAPAPAPLPAPKNLVVSRVTEDSARLSWTAPDAAFDSFWIRYFEFLGSGEAIVLTVPGSERSYDLTGLKPGTEYVVNILGVKGGKISPPLSAIFTT
modifications: bispecific EGFR/cMet binding molecule
B2: ECB95: bispecific SEQ ID NO: 62: P54AR4-83v22, (AP)5, P114AR9P121-A6v2 (protein)
chain: B1 chain with L144V, K183S
modifications: bispecific EGFR/cMet binding molecule
B3: ECB96: bispecific SEQ ID NO: 63: P54AR4-83v22, (AP)5, P114AR9P122-A7v2 (protein)
chain: B1 chain with L144V, G145S, S146K, E148D, K183S
modifications: bispecific EGFR/cMet binding molecule
B4: P114AR7P94-A3: c-Met-binding FN3 domain, SEQ ID NO: 41 (protein)
chain: LPAPKNLVVSRVTEDSARLSWTAPDAAFDSFWIRYFEFLGSGEAIVLTVPGSERSYDLTGLKPGTEYVVNIMGVKGGKISPPLSAIFTT
modifications: c-Met binding FN3 domain
B5: P114AR7P95-H8: c-Met-binding FN3 domain, SEQ ID NO: 49 (protein)
chain: B4 chain with L39V, G40S, S41K, K78S
modifications: c-Met binding FN3 domain
B6: P114AR5P74-A5: c-Met-binding FN3 domain, SEQ ID NO: 32 (protein)
chain: B4 chain with F36D, F38V, L39V, G40V, S41G, V68Y, M72L, K78S, P81V
modifications: c-Met binding FN3 domain
B7: P114AR7P92-G8: c-Met-binding FN3 domain, SEQ ID NO: 36 (protein)
chain: B4 chain with W32V, N70Q, M72L, K78Y, P81I
modifications: c-Met binding FN3 domain
B8: P114AR7P92-F6: c-Met-binding FN3 domain, SEQ ID NO: 35 (protein)
chain: B4 chain with M72L, K78G, I79L, P81V
modifications: c-Met binding FN3 domain
B9: P114AR7P95-D4: c-Met-binding FN3 domain, SEQ ID NO: 45 (protein)
chain: B4 chain with N70Q, M72L, K78Y, P81I
modifications: c-Met binding FN3 domain
B10: P114AR7P95-F10: c-Met-binding FN3 domain, SEQ ID NO: 47 (protein)
chain: B4 chain with L39T, G40T, S41A, K78S
modifications: c-Met binding FN3 domain
B11: P114AR7P93-G8: c-Met-binding FN3 domain, SEQ ID NO: 39 (protein)
chain: B4 chain with G60D, V68G, N70T, M72N, K78R, I79V, P81T
modifications: c-Met binding FN3 domain
B12: P114AR7P93-H9: c-Met-binding FN3 domain, SEQ ID NO: 40 (protein)
chain: B4 chain with N70Q, M72I, K78H, P81L
modifications: c-Met binding FN3 domain
B13: P114AR7P92-H5: c-Met-binding FN3 domain, SEQ ID NO: 37 (protein)
chain: B4 chain with F36L, G40L, S41G, N70Q, K78T, I79V
modifications: c-Met binding FN3 domain
B14: P114AR7P94-E5: c-Met-binding FN3 domain, SEQ ID NO: 42 (protein)
chain: B4 chain with V68A, K78R, I79V, P81V
modifications: c-Met binding FN3 domain
B15: P114AR7P95-G7: c-Met-binding FN3 domain, SEQ ID NO: 48 (protein)
chain: B4 chain with F38L, G40S, S41T, K78S
modifications: c-Met binding FN3 domain
B16: A3 F38S: serine mutant of A3 c-Met domain in ECB15 context, SEQ ID NO: 222 (protein)
chain: B4 chain with F38S
modifications: c-Met binding FN3 domain
B17: A3 L39S: serine mutant of A3 c-Met domain in ECB15 context, SEQ ID NO: 214 (protein)
chain: B4 chain with L39S
modifications: c-Met binding FN3 domain
B18: A3 N70S: serine mutant of A3 c-Met domain in ECB15 context, SEQ ID NO: 216 (protein)
chain: B4 chain with N70S
modifications: c-Met binding FN3 domain
B19: A3 G40S: serine mutant of A3 c-Met domain in ECB15 context, SEQ ID NO: 213 (protein)
chain: B4 chain with G40S
modifications: c-Met binding FN3 domain
B20: A3 W32S: serine mutant of A3 c-Met domain in ECB15 context, SEQ ID NO: 219 (protein)
chain: B4 chain with W32S
modifications: c-Met binding FN3 domain
B21: A3 V68S: serine mutant of A3 c-Met domain in ECB15 context, SEQ ID NO: 215 (protein)
chain: B4 chain with V68S
modifications: c-Met binding FN3 domain
B22: A3 F36S: serine mutant of A3 c-Met domain in ECB15 context, SEQ ID NO: 218 (protein)
chain: B4 chain with F36S
modifications: c-Met binding FN3 domain
B23: A3 K78S: serine mutant of A3 c-Met domain in ECB15 context, SEQ ID NO: 212 (protein)
chain: B4 chain with K78S
modifications: c-Met binding FN3 domain
B24: A3 P81S: serine mutant of A3 c-Met domain in ECB15 context, SEQ ID NO: 217 (protein)
chain: B4 chain with P81S
modifications: c-Met binding FN3 domain
B25: A3 M72S: serine mutant of A3 c-Met domain in ECB15 context, SEQ ID NO: 220 (protein)
chain: B4 chain with M72S
modifications: c-Met binding FN3 domain
B26: A3 I79S: serine mutant of A3 c-Met domain in ECB15 context, SEQ ID NO: 223 (protein)
chain: B4 chain with I79S
modifications: c-Met binding FN3 domain
B27: A3 R34S: serine mutant of A3 c-Met domain in ECB15 context, SEQ ID NO: 221 (protein)
chain: B4 chain with R34S
modifications: c-Met binding FN3 domain

Tested on: H292 cells
Test: Inhibition of proliferation of HGF-induced H292 cells
Type: cell-based, human
Details: bispecific molecules
From the text: Inhibition of tumor cell proliferation can be measured using standard methods and methods described herein.
The proliferation assay was completed using different combinations EGFR and c-Met binding FN3 domains either as a mixture or linked in a bispecific format. […] This confirmed that the avidity effect observed at the level of the receptors (FIG. 4 and FIG. 5) translates into an improvement in inhibiting cell signaling (Table 12) and cell proliferation (Table 13).
Inhibition of human tumor cell growth was assessed in standard attachment culture as described in Examples 3 or 6, or in low attachment conditions.

Row | Molecule | IC50 [nM]
1 | B1 | 29.6
2 | B2 | 383
3 | B3 | 9480

Tested on: not listed separately
Test: Differential scanning calorimetry in PBS (thermal stability)
Type: physicochemical
Details: DSC in PBS, c-Met-binding FN3 domains

Row | Molecule | Thermal Stability (Tm) [C]
4 | B4 | 86.2
5 | B5 | 83
6 | B6 | 74.1
7 | B7 | 90.9
8 | B8 | 76.8
9 | B9 | 85.3
10 | B10 | 85.2
11 | B11 | 76.8
12 | B12 | 88.2
13 | B13 | 87
14 | B14 | 80
15 | B15 | 87.2

Target: T1, c-Met-Fc fusion protein (Homo sapiens, UniProt P08581)
T1 construct: recombinant EGFR and/or c-Met extracellular domain
Test: c-Met-Fc affinity by surface plasmon resonance (Proteon)
Type: binding
Details: not given

T1 sequence (P08581 25-932 limits assumed): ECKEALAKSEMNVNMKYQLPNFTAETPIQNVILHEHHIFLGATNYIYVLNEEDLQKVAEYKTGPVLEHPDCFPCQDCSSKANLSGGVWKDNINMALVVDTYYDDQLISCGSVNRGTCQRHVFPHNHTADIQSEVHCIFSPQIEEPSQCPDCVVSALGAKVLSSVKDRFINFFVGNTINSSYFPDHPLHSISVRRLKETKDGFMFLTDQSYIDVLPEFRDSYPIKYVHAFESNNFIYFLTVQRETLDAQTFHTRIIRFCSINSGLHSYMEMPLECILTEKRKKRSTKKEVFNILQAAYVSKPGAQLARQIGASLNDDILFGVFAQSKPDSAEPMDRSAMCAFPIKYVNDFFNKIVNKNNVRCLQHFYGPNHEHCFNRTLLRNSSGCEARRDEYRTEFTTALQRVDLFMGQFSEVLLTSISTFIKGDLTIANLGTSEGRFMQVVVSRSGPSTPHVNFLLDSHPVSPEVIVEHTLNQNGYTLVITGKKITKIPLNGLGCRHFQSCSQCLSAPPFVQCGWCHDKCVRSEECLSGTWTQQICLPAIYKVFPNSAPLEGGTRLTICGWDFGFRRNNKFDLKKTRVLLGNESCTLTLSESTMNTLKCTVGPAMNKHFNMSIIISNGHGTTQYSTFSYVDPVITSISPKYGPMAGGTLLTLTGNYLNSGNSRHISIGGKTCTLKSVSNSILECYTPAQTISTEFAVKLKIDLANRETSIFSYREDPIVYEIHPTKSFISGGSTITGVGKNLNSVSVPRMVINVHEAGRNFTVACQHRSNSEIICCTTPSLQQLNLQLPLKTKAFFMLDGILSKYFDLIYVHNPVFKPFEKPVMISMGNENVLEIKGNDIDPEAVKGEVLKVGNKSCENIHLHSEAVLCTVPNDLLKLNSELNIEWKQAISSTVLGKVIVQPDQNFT

Row | Molecule | Fold Change of KD compared to parent
16 | B16 | 1792.5
17 | B17 | 6.75
18 | B18 | 14.75
19 | B19 | 4.25
20 | B20 | 74.5
21 | B21 | 9
22 | B22 | 68
23 | B23 | 0.75
24 | B24 | 4.25

Same assay, conditions: SPR, serine mutants in ECB15

Row | Molecule | binding to c-Met (in words)
25 | B25 | No binding was measurable
26 | B26 | No binding was measurable
27 | B27 | No binding was measurable

Same assay, conditions: listed as F38S

Row | Molecule | Fold Change of KD compared to parent
28 | B16 | greater than 100

Same assay, conditions: serine mutants of A3 in the context of ECB15

Row | Molecule | ka [M⁻¹ s⁻¹] | kd [s⁻¹]
29 | B16 | 45100 | 0.0323
30 | B17 | 475000 | 0.00127
31 | B18 | 425000 | 0.00249
32 | B19 | 185000 | 0.00032
33 | B20 | 289000 | 0.0086
34 | B21 | 329000 | 0.0012
35 | B22 | 188000 | 0.00512
36 | B23 | 440000 | 0.00015
37 | B24 | 321000 | 0.000536

Same assay, conditions: serine mutants of A3 in the context of ECB15; read-out: KD

Row | Molecule | Kd [nM]
38 | B16 | 717
39 | B17 | 2.7
40 | B18 | 5.9
41 | B19 | 1.7
42 | B20 | 29.8
43 | B21 | 3.6
44 | B22 | 27.2
45 | B23 | 0.3
46 | B24 | 1.7
